# Laboratory results from IntAct's records for PubMed 28698298.
# B1: Eukaryotic translation initiation factor 4E type 2 (Homo sapiens), O60573-1 (parent)
# chain: MNNKFDALKDDDSGDHDQNEENSTQKDGEKEKTERDKNQSSSKRKAVVPGPAEHPLQYNYTFWYSRRTPGRPTSSQSYEQNIKQIGTFASVEQFWRFYSHMVRPGDLTGHSDFHLFKEGIKPMWEDDANKNGGKWIIRLRKGLASRCWENLILAMLGEQFMVGEEICGAVVSVRFQEDIISIWNKTASDQATTARIRDTLRRVLNLPPNTIMEYKTHTDSIKMPGRLGPQRLLFQNLWKPRLNVP
# partner: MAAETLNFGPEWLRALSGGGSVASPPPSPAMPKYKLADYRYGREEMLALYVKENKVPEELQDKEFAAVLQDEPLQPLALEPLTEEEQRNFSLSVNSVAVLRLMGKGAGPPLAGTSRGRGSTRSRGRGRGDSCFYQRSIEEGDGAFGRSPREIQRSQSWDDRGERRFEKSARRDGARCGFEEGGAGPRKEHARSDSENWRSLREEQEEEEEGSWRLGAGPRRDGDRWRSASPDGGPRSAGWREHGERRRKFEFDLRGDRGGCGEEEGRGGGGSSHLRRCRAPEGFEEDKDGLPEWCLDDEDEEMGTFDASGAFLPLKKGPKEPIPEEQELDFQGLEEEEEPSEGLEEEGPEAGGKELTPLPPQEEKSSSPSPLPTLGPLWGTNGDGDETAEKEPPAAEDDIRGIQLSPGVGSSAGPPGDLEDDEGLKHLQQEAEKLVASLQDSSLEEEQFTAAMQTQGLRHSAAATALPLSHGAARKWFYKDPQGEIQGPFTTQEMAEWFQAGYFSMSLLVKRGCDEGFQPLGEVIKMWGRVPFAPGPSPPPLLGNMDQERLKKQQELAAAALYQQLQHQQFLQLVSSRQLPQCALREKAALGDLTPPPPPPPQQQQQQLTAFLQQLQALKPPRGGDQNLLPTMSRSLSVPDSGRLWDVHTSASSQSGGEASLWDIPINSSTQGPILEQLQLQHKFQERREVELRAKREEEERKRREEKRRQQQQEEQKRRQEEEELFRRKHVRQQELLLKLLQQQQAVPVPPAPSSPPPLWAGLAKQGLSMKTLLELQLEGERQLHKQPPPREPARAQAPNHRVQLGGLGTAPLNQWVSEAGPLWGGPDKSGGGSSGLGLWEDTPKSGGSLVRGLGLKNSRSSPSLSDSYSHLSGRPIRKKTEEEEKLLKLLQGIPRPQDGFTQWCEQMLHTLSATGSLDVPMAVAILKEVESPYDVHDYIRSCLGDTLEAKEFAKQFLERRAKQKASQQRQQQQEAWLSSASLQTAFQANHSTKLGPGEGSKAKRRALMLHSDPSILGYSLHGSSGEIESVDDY
# B2: GRB10-interacting GYF protein 1 (Homo sapiens), O75420 (parent)
# chain: B1 partner
# B3: Eukaryotic translation initiation factor 4E type 2 (Homo sapiens), O60573-1 (parent)
# chain: B1 chain
# Variants of: B1
# Conditions: with ggyf1_human GIGYF1, O75420
row,effect of a mutation on the interaction,Variant
1,with no effect,MNNKFDALKDDDSGDHDQNEENSTQKDGEKEKTERDKNQSSSKRKAVVPGPAEHPLQYNYTFWYSRRTPGRPTSSQSYEQNIKQIGTFASVEQFWRFYSHMVRPGDLTGHSDFHLFKEGIKPMWEDDANKNGGKWIIRLRKGLASRCWENLILAMLGESFDVGEEICGAVVSVRFQEDIISIWNKTASDQATTARIRDTLREVLNLPPNTIMEYKTHTDSIKMPGRLGPQRLLFQNLWKPRLNVP [Q159S;M161D;R202E]

# Variants of: B1
# Conditions: with ggyf1_human GIGYF1, O75420
# Remark: another data set of the same source
row,effect of a mutation on the interaction,Variant
1,decreasing interaction strength,MNNKFDALKDDDSGDHDQNEENSTQKDGEKEKTERDKNQSSSKRKAVVPGPAEHPLQYNYTFWYSRRTPGRPTSSQSYEQNIKQAGTFASVEQFWRFYSHAVRPGDLTGHSDFHLFKEGIKPMWEDDANKNGGKWIIRLRKGLASRCWENLILAMLGEQFMVGEEICGAVVSVRFQEDIISIWNKTASDQATTARIRDTLRRVLNLPPNTIMEYKTHTDSIKMPGRLGPQRLLFQNLWKPRLNVP [I85A;M101A]
2,disrupting interaction strength,MNNKFDALKDDDSGDHDQNEENSTQKDGEKEKTERDKNQSSSKRKAVVPGPAEHPLQYNYTFWYSRRTPGRPTSSQSYEQNIKQAGTFASVEQFARFYSHAVRPGDLTGHSDFHLFKEGIKPMWEDDANKNGGKWIIRLRKGLASRCWENLILAMLGEQFMVGEEICGAVVSVRFQEDIISIWNKTASDQATTARIRDTLRRVLNLPPNTIMEYKTHTDSIKMPGRLGPQRLLFQNLWKPRLNVP [I85A;W95A;M101A]

# Variants of: B1
# Conditions: with ggyf1_human GIGYF1, O75420
# Remark: another data set of the same source
row,effect of a mutation on the interaction,Variant
1,with no effect,MNNKFDALKDDDSGDHDQNEENSTQKDGEKEKTERDKNQSSSKRKAVVPGPAEHPLQYNYTFWYSRRTPGRPTSSQSYEQNIKQAGTFASVEQFWRFYSHAVRPGDLTGHSDFHLFKEGIKPMWEDDANKNGGKWIIRLRKGLASRCWENLILAMLGEQFMVGEEICGAVVSVRFQEDIISIWNKTASDQATTARIRDTLRRVLNLPPNTIMEYKTHTDSIKMPGRLGPQRLLFQNLWKPRLNVP [I85A;M101A]

# Variants of: B2
# Conditions: with EIF4E2, O60573-1
row,effect of a mutation on the interaction,Variant
1,disrupting interaction strength,L60D;F65D;V68D;P76D;L77A
2,with no effect,L60D;F65A;V68D
3,with no effect,E86A;N95F
4,disrupting interaction strength,L60D;F65D;V68D;E86A;N95F

# Variants of: B2
# Conditions: with EIF4E2, O60573-1
# Remark: another data set of the same source
row,effect of a mutation on the interaction,Variant
1,with no effect,E44F;E45A;Q87A

# Variants of: B2
# Conditions: with EIF4E2, O60573-1
# Remark: another data set of the same source
row,effect of a mutation on the interaction,Variant
1,disrupting interaction strength,Y39A;Y41A;M46A;L47A

# Variants of: B2
# Conditions: with EIF4E2, O60573-1
# Remark: another data set of the same source
row,effect of a mutation on the interaction,Variant
1,with no effect,E44A;E45F;Q87A

# Variants of: B3
# Conditions: with 4ebp1_human EIF4EBP1, Q13541
# Chain of 4ebp1_human EIF4EBP1, Q13541 (Q13541 whole entry): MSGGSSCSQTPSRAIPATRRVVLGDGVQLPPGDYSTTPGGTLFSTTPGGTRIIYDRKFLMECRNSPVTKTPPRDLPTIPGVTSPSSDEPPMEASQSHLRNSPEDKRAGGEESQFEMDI
row,effect of a mutation on the interaction,Variant
1,increasing interaction strength,MNNKFDALKDDDSGDHDQNEENSTQKDGEKEKTERDKNQSSSKRKAVVPGPAEHPLQYNYTFWYSRRTPGRPTSSQSYEQNIKQIGTFASVEQFWRFYNHMVRPGDLTGHSDFHLFKEGIKPMWEDDANKNGGKWIIRLRKGLASRCWENLILAMLGEQFMVGEEICGAVVSVRFQEDIISIWNKTASDQATTARIRDTLRRVLNLPPNTIMEYKTHTDSIKMPGRLGPQRLLFQNLWKPRLNVP [S99N]

# Variants of: B3
# Conditions: with 4ebp1_human EIF4EBP1, Q13541
# Remark: another data set of the same source
row,effect of a mutation on the interaction,Variant
1,disrupting interaction strength,MNNKFDALKDDDSGDHDQNEENSTQKDGEKEKTERDKNQSSSKRKAVVPGPAEHPLQYNYTFWYSRRTPGRPTSSQSYEQNIKQAGTFASVEQFWRFYSHAVRPGDLTGHSDFHLFKEGIKPMWEDDANKNGGKWIIRLRKGLASRCWENLILAMLGEQFMVGEEICGAVVSVRFQEDIISIWNKTASDQATTARIRDTLRRVLNLPPNTIMEYKTHTDSIKMPGRLGPQRLLFQNLWKPRLNVP [I85A;M101A]
2,disrupting interaction strength,MNNKFDALKDDDSGDHDQNEENSTQKDGEKEKTERDKNQSSSKRKAVVPGPAEHPLQYNYTFWYSRRTPGRPTSSQSYEQNIKQIGTFASVEQFARFYSHMVRPGDLTGHSDFHLFKEGIKPMWEDDANKNGGKWIIRLRKGLASRCWENLILAMLGEQFMVGEEICGAVVSVRFQEDIISIWNKTASDQATTARIRDTLRRVLNLPPNTIMEYKTHTDSIKMPGRLGPQRLLFQNLWKPRLNVP [W95A]
